Values of other authors as cited in patent US11866502B2, “Anti-FGFR2 antibodies and methods of use thereof” (Regeneron Pharmaceuticals, Inc., priority 2020, dated 2024).

Tested on: xenograft models
Details: several xenograft models; cited from earlier work

B1: Aprutumab-TTC: anti-FGFR2 antibody, a chelator moiety covalently conjugated to the antibody, and the alpha particle-emitting radionuclide thorium-227 (conjugate, chains of the INN, looked up)
VH: EVQLLESGGGLVQPGGSLRLSCAASGFTFSSYAMSWVRQAPGKGLEWVSAISGSGTSTYYADSVKGRFTISRDNSKNTLYLQMNSLRAEDTAVYYCARVRYNWNHGDWFDPWGQGTLVTVSS
VL: QSVLTQPPSASGTPGQRVTISCSGSSSNIGNNYVSWYQQLPGTAPKLLIYENYNRPAGVPDRFSGSKSGTSASLAISGLRSEDEADYYCSSWDDSLNYWVFGGGTKLTVL
modifications: chelator conjugate with thorium-227
- tumor growth in xenograft models: inhibited tumor growth
